Measured values as given in patent US20240343773A1.
Ends that are not written are not given here.

Target: IGF1 receptor (IGF1R) (UniProt P08069)
Test: method not stated; in the absence of glucose

B1: SEQ ID NO: 5 (ligand)
chain: FVDQHLCGSHLVEALYLVCGERGFFYTPKTYDGKGIVEQCCTSICSLYQLENYCG
modifications: ends and bridges not checked; cysteine pairing not given here
Kd: 30.4 nM

B2: SEQ ID NO: 7 (ligand)
chain: FVGQHLCGSHLVEALYLVCGERGFFYTPKTYDGKGIVEQCCTSICSLYQLENYCG
modifications: ends and bridges not checked; cysteine pairing not given here
Kd: 26.8 nM
